# Data as given in the DeepSol protein solubility set.
# Assay: soluble on expression in E. coli; label from the status in PepcDB or PDB records
row,Sequence,soluble on expression in E. coli
1,MGNTSSERSGGEKTHRRESRSGKDGTRPKILMDSAEDGDLFQSDDAKEFLAWRQDQESDSKTPLEERPTVFRWKGPGKEIYLSGSFNNWATKIPLNKSHNNFVAIIDLPEGEHQYKFYVDGHWTLDPKEPVVTNKSGVVNNVIKVRKTDFEVFDALKTDSEKCADMSDLSSSPPGPYHQDPYSTKSEDKLRSPPILPPHLLQVLLNKDTGISCDPTLLPEPNHVMLNHLYALSIKDGVMVLSATHRYKKKYVTTLLYKPI,not soluble
2,MGSDKIHHHHHHMDRFLSIEAFVRVAEASSFAEAARQLGVTSSVVTNRIQQLEKFVNAPLFHRSTRHVRLSEVGETFYRECAEVVGRVNELTDQMRELRATPTGRLRIQMLPGFALDHFGVPLAEFNRRYPGIQLDIIVNDRVVDPVEEGFDIAFQIFPPISESLIERRLFVVRRLFCASPAYLDAHGAPQHPRELLQHTTALYSGYPSRNRWTMTRGDEVVEMELPGMIRSNSVHLLREYALTGGGVVCLPTLVASEALVAGRLVPILTDFEIAPLSFAAVYPATQRQALKVKALVEFLAEYIGDESPWDRPLLERGWVR,not soluble
3,MAHHHHHHMKRWRTANLFTPAEVQHAFAALHRNAEALYSVSGTSSPLGPFVCRRGGARRHRRDHIELPLRHMYEAKTVYEQLPVEVRLICAGLYEAALGYAQEALREPGVSSAARDGILSNLGRNSVLRVLRYPAGSGCRPHVDPGLCTALLVGSAGGLEMSTTDAVLTPFASGPGHNTAHFVSSPTSMRGEAATMPGTLPHWEPVLTAHTGEAVVMAGNMLGAVSGGALPGVLHRVRRDWVAETPRTDGQRSPPLHAACVGGGADAEVDAGSGVFRFNVIVELRPAHAKRWYAATSGQSQLSSASSPSSLA,not soluble
4,MLKFRTVHGGLRLLGIRRTSTAPAASPNVRRLEYKPIKKVMVANRGEIAIRVFRACTELGIRTVAIYSEQDTGQMHRQKADEAYLIGRGLAPVQAYLHIPDIIKVAKENNVDAVHPGYGFLSERADFAQACQDAGVRFIGPSPEVVRKMGDKVEARAIAIAAGVPVVPGTDAPITSLHEAHEFSNTYGFPIIFKAAYGGGGRGMRVVHSYEELEENYTRAYSEALAAFGNGALFVEKFIEKPRHIEVQILGDQYGNILHLYERDCSIQRRHQKVVEIAPAAHLDPQLRTRLTSDSVKLAKQVGYENAGTVEFLVDRHGKHYFIEVNSRLQVEHTVTEEITDVDLVHAQIHVAEGRSLPDLGLRQENIRINGCAIQCRVTTEDPARSFQPDTGRIEVFRSGEGMGIRLDNASAFQGAVISPHYDSLLVKVIAHGKDHPTAATKMSRALAEFRVRGVKTNIAFLQNVLNNQQFLAGTVDTQFIDENPELFQLRPAQNRAQKLLHYLGHVMVNGPTTPIPVKASPSPTDPVVPAVPIGPPPAGFRDILLREGPEGFARAVRNHPGLLLMDTTFRDAHQSLLATRVRTHDLKKIAPYVAHNFSKLFSMENWGGATFDVAMRFLYECPWRRLQELRELIPNIPFQMLLRGANAVGYTNYPDNVVFKFCEVAKENGMDVFRVFDSLNYLPNMLLGMEAAGSAGGVVEAAISYTGDVADPSRTKYSLQYYMGLAEELVRAGTHILCIKDMAGLLKPTACTMLVSSLRDRFPDLPLHIHTHDTSGAGVAAMLACAQAGADVVDVAADSMSGMTSQPSMGALVACTRGTPLDTEVPMERVFDYSEYWEGARGLYAAFDCTATMKSGNSDVYENEIPGGQYTNLHFQAHSMGLGSKFKEVKKAYVEANQMLGDLIKVTPSSKIVGDLAQFMVQNGLSRAEAEAQAEELSFPRSVVEFLQGYIGVPHGGFPEPFRSKVLKDLPRVEGRPGASLPPLDLQALEKELVDRHGEEVTPEDVLSAAMYPDVFAHFKDFTATFGPLDSLNTRLFLQGPKIAEEFEVELERGKTLHIKALAVSDLNRAGQRQVFFELNGQLRSILVKDTQAMKEMHFHPKALKDVKGQIGAPMPGKVIDIKVVAGAKVAKGQPLCVLSAMKMETVVTSPMEGTVRKVHVTKDMTLEGDDLILEIE,soluble
5,MTGHWSYCDDDECGPNRWPTGQHQSPINIDLGEVERKDTHDGIKFVNYDHPIQGDIVNNGHSVQMTPELRSEHPEIYGGGLDQVYRLVQYHFHWGENDNEGSEHTLGGLRYPAELHLVHQGVEDPGKLAVVGVFLQLGKEGKALSNEERVLGKLCNPETVTRVENVRLSEKLPANKRSFWRYEGSLTTPPCSEIVTWTIFTEPVTVTHDQLELFRQVQDIEKRPIKKNYRPTQNLNDRKIVHIVAN,not soluble
6,MGHHHHHHSHLGHSTMYMWAMGDREVFIELAEALTGARLTHSYPIPGGARRDIPADFPDMARRAVRYMRKRLDEYAKIFLNNPVIRSRLEGVGVIPKKAAAEMGIVGPNARGSGIDYDVRLVHPYDAYPEIDFEVPVFEEGDALARTYVRVEEIKQSLRIIEQAVEWLEKHPREPIVDKYLYGKYPPLHKKVLEAEGRAKLLPTVAAMKVPPGRAIGRAETGRGETVYYVESDGGVNPYRVRIVTASARNVIAFKYVLPGHRVMDIPAIYGSLDYFPPEADR,not soluble
7,MTQPLVGKQILIVEDEPVFRSLLDSWFSSLGATTALAGDGVDALELMGRFTPDLMICDIAMPRMNGLKLVENLRNRGDQTPILVISATENMADIAKALRLGVEDVLLKPVKDLNRLRETVFACLYPNMFNSRVEEEERLFRDWDAMVSNPTAAAQLLQELQPPVQQVISHCRINYRQLVSADQPGLVLDIAPLSDNELAFYCLDVTRAGDNGVLAALLLRALFNGLLQDQLGQQKHRLPELGALLKQVNHLLRQANLPGQFPLFVGYYHSELKNLILVSAGLNATLNTGAHQVQISSGVPLGTLGNAYLNQLSQRCDSWQCQIWGAGGRLRLMLSAE,not soluble
8,MGSDKIHHHHHHGAGISTESGIPDYRSKDVGLYARIAHKPIYFQDYMRSNRCRQRYWSRNFLAWPRFGQAAPNINHYALSKWEASDRFQWLITQNVDGLHLKAGSKMVTELHGSALQVKCTTCDYIESRQTYQDRLDYANPGFKEEHVAPGELAPDGDIILPLGTEKGFQIPECPSCGGLMKTDVTFFGENVNMDKVNFCYEKVNECDGILSLGTSLAVLS,not soluble
9,MQARKLAVDGAIEFTPRVFADDRGLLILPYQEEAFVEAHGGPLFRVAQTIHSMSKRGVVRGIHYTVTPPGTAKYVYCARGKAMDIVIDIRVGSPTFGQWDSVLMDQQDPRAVYLPVGVGHAFVALEDDTVFSYMASRSYVTQDELALSALDPALGLPIDIGVEPIVSDRDRVAITLAEAQRQGLLPDYTTSQEIERRLTAVPVST,soluble
10,MKETIIVVHERPDIYDPVFIEGLPGIGLVGKLAAEHLIQELKAKKFAELYSPHFMHQVLIRKGSIVELMKNEFYYWKSPDDEHRDLIIVTGDTQVPPTDSYGHFEVAGKMLDFVQEFGTREIITMGGYQVPELQGEPRVLAAVTHPDLISYYQEKLKDCKVNVMWREDEGGAIVGAAGLLLGIGKLRGMFGISLLGESLGYIVDAKAAKAVLTAVAKILGLEIDMTALEERAKETEEILRKVEEMQRTIMEQQLPRPTHEEEDRGYL,not soluble
11,MDFASSDGGGRTTTSAKIVVAGGFGVGKTTFVGAVSEINPLRTEAVMTSASAGIDDLTHTGDKTTTTVAMDFGRITLDQDLILYLFGTPGQDRFWFMWDDLVRGAIGAVVLVDTRRLADCFPAVDYFENSGLPFVIALNGFDGHQPYNPEEVREALQIGPDAPIITTDARHRADAKSALITLVEHALMARLRLEHHHHHH,not soluble
12,MGRFPSWVLVADWPAPPGVMVLSTLRGGPGVSVAPFDRLNLGNCSGVAGDAPVCVERNRSRLVEMLGLPSVPHWLRQVHGVEVLRVDALLQSIARVVEPTADAAVTSVVGAVLAILTADCLPVVLAAVDGSEIGVVHAGWRGLADDVLGRTVAALRTSPEYLQAWLGPAAGPQAYEVGVDVYAAFVERDSGAACAFSVTRPGHWYVDLYALARQRLMRAGLSAVSIYGGGLCTISDPQRFFSHRRDRRSGRFATLAWIGC,soluble
13,IPVDLTWDLEAIFSTDEEWEKEFNEVKGLIPSLVQFKGKLSQSAEILYAALQQQDEITERLGRLYTYAHMRYDQDTTNSFYQGLNDRAQTLASQVGQAASFVVPELMSIEKEKIDTFLNEHEPLTLYRHMLDELNKQRPHVLSEAEESILAQASEVTSAPSNTFGMLNNADMTFPTIVNENGEEVEVTHGRYL,soluble
14,AAHQLTIVHLEARDIDRPNPQLEIAPKEGTPIEGVLYQLYQLKSTEDGDLLAHWNSLTITELKKQAQQVFEATTNQQGKATFNQLPDGIYYGLAVKAGEKNRNVSAFLVDLSEDKVIYPKIIWSTGELDLLKVGVDGDTKKPLAGVVFELYEKNGRTPIRVKNGVHSQDIDAAKHLETDSSGHIRISGLIHGDYVLKEIETQSGYQIGQAETAVTIEKSKTVTVTIENKKVPTPKVPSR,soluble
15,MRTLPILLLVIVGVVYCYPLNEDNVDLESDVAEMEGAELDRVKRASDHKLEKKLDEIMEKVEKIKDKIEENKEKREKKNKKKGNKKDEDEEEEEDKDKKKKDKKKNKDSEEEEDKKKDKKKKNDSSDESEEENKKRKNKRKN,not soluble
16,MEKFIDENVAFGRMPYEDEIDELVEKFDAFVVLVEDFELVYDIEELKKKVDVLHSPIPDFTAPSLSQLYKIVKWIEEKVKEGKKVYIHCYGGSGRSGTVAVAWLMYSQGLSLREGLRRVRLLKPSAVETEDQLEVLREFERFLDTR,soluble
17,MSSAPNDDCEIDKGTPSTASLFTTLMLSQPSSSTAVLQCTYCGSSCTSSQLQTCLFCGTVAYCSKEHQQLDWLTHKMICKSLQTSGMVPSNLMPQAAPAVMAPIPPTVSFDDPALTTSLLLSLQNNPILNQTISNFPPTFSITSKTEPEPSIPIQIPQRISSTSTVPFSSEGSAFKPYRNTHVFNSISSESMSSMCTSHEASLEHMSSASLAMFPTSSTAQSDISRLAQVLSLAGDSPASLALVTTSVPSTASTATIPPPATTTSSATSSGKSETITVGKEKIIQTDDPDIQIIETEGGSKPTVSRTRKRPTPSNSADPKINYKDHNKNVVYSTTLQEHQKHLQNRGLALSIHQAMVLRLRYIAEHVIRSLNEFGWAVVDNFLGSDHYKFTAKEIERLYERGLFSPGQLMEAKHKDEFHIKDIRSDHIYWYDGYDGRAKDAATVRLLISMIDSVIQHFKKRIDHDIGGRSRAMLAIYPGNGTRYVKHVDNPVKDGRCITTIYYCNENWDMATDGGTLRLYPETSMTPMDIDPRADRLVFFWSDRRNPHEVMPVFRHRFAITIWYMDKSERDKALAKGKESDAACASKKENDPTSSSLNSLIGSLLRPRKNPSTHDLSKLDLRLFPSTSSDPALVSAADEDRVDISADFQSTSSLAHPESTDSGVSLSTFNVAHNHMERTTSLQSISDHFRSERSHERRSSTSSDQDLDEGLPPPPSTNPEYYI,not soluble
18,MKLTGSKILIECLKEQGVDTIFGFPGGAVLNIYDELYRSQNEIRHILTSHEQGAAHAADGYARATGKVGVCLATSGPGATNLVTGIATAYMDSVPMVAITGQVATPLLGKDSFQEVDITGITMPITKHNFIVKDVNKLADIVRRAFYIAKEGRPGPVLIDICKDVTAAYAEYEPKSPQELPEVPVRVDEKCIDEAAEAINKAERPVILAGGGVSIAGANKELFEFATNAQIPVTTTLMGMGAFPGTHELFMGMIGMHGTKTTNMAVSESDLFIAIGARFSDRVISNVQRFAPKASIMHIDIDPAEIGKNINVQYALEGNIKKILQLLNERVKKKECTDWVRKINEWKELYPLKYPQDDKLHPQYIIERMYELTKGEAIITTEVGQHQMWAAQFYKYTSPRQFLSSGGLGTMGYGLGACIGARIGRPDKKVINVAGDGSFRMNCNELATAVEYKLPIIVAIFNNHALGMVRQWQQLFYGGRYSSTSLDRCTDFKALAEAYGAIGINVTAKEEVDEALNRALASEDTPVVINFEIDKDEMVFPIVPPGAPLSELIEE,not soluble
